This note sets out measurements from publication PMC8396345, “Target Affinity and Structural Analysis for a Selection of Norovirus Aptamers”.

Data set [1] addresses T1, norovirus GI.1 VLP (major capsid protein VP1) (Norovirus GI.1, UniProt Q83884 1-530). The experiment in a line: filter binding; Kd not determined; FRA: 1 nM 32P-aptamer, 0-1500 nM VLP, 60 min, each aptamer's original selection buffer (M1, M6-2, SMV19, SMV21: PBS pH 7.4; others in Table S1, not in material); FRA temperature not stated; pull-down at room temperature. As to conditions: protein: recombinant, chain copies: 180, label: 5'-32P (FRA).

Data set [2] concerns the target T1, norovirus GI.1 VLP (major capsid …). The experiment in a line: filter binding; <10% bound at 1500 nM; FRA: 1 nM 32P-aptamer, 0-1500 nM VLP, 60 min, each aptamer's original selection buffer (M1, M6-2, SMV19, SMV21: PBS pH 7.4; others in Table S1, not in material); FRA temperature not stated; pull-down at room temperature. The note with it: protein: recombinant; chain copies: 180; label: 5'-32P (FRA); B-DNA-like CD.

T1 sequence (Q83884 whole entry): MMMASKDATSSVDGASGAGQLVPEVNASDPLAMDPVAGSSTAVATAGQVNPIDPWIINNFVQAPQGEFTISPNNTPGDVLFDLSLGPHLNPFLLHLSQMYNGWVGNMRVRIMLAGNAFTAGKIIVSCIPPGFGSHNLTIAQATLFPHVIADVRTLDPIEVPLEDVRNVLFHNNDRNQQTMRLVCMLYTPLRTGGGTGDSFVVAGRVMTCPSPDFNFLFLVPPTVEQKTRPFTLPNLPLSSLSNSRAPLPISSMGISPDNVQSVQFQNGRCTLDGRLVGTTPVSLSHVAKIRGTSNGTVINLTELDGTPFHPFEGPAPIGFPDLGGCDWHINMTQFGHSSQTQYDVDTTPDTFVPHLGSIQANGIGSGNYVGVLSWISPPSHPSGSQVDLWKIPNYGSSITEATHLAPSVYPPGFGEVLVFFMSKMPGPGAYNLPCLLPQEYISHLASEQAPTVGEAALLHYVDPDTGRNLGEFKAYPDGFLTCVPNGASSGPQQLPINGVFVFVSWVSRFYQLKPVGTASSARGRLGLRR

Regarding CCATGTTTTGTAGGTGTAATAGGTCATGTTAGGGTTTCTG (ssDNA) [SMV21], the binding result in data set [1] (B-DNA-like CD) is reported as “no binding”. For the molecule TGTTTATGGGGATAAACGTATCTAATTCGTGTACTAATCA (ssDNA) [M1], in data set [2], the binding result was “no binding”. On to TGGGAAGAGGTCCGGTAAATGCAGGGTCAGCCCGGAGAG (ssDNA) [M6-2], for which, in data set [2], the binding result is reported as “no binding”. Turning to CACCAGTGTGTTGAGGTTTGAGCACACTGATAGAGTGTCA (ssDNA) [SMV19], the binding result in data set [1] (B-DNA-like CD) is listed as “no binding”.

B1: AG3 (ssDNA)
DNA: GCTAGCGAATTCCGTACGAAGGGCGAATTCCACATTGGGCTGCAGCCCGGGGGATCC
Turning to B1, the binding result in data set [1] (B-DNA-like CD) was “no binding”. For GAAATTGGGTTCGGGTTTGGGTTGGGATTACTTAGCGATG (structured_DNA) [Buf-2], in data set [1] (inter- or intramolecular not resolved), the binding result is given as “no binding”. For the molecule GTCTGTAGTAGGGAGGATGGTCCGGGGCCCCGAGACGACGTTATCAGGC (ssDNA) [Beier], the binding result in data set [1] (B-DNA-like CD) is reported as “no binding”.
